Patent US20080131908A1 (Genentech, published 2008)
Blank lines part the entries; values can stand above or below the molecule they belong to.

Legend:
[1] = target: human Notch3 (full-length) (human) (UniProt Q9UM47); test: FACS on Sup-T1 cells (native Notch3)
[2] = target: human Notch3 (full-length) (human) (UniProt Q9UM47); test: FACS on 293T cells transiently transfected with Notch3/Hygromycin
[3] = target: T1, Notch3-LD/Fc fusion protein (human, UniProt Q9UM47 1378-1640); test: ELISA, hybridoma supernatant on coated Notch3-LD/Fc (0.1 ug/ml); control beside 256A-13
T1 construct: A signal peptide was linked to the N-terminus (not identified, left out); not described; also called Notch3/Fc fusion protein
T1 sequence: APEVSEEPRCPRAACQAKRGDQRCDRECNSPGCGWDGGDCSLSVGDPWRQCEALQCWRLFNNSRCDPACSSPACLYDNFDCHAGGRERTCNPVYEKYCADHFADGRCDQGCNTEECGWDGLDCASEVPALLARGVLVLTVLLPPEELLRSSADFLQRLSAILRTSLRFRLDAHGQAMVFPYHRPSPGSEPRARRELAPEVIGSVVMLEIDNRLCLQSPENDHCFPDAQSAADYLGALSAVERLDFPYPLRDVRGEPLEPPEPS

[4] = target: Notch3-EGF/Fc fusion protein (human) (UniProt Q9UM47); test: ELISA, hybridoma supernatant on coated Notch3-EGF/Fc (0.1 ug/ml); control beside 255A-71
Notch3-EGF/Fc fusion protein (human), sequence (Q9UM47 43-1377): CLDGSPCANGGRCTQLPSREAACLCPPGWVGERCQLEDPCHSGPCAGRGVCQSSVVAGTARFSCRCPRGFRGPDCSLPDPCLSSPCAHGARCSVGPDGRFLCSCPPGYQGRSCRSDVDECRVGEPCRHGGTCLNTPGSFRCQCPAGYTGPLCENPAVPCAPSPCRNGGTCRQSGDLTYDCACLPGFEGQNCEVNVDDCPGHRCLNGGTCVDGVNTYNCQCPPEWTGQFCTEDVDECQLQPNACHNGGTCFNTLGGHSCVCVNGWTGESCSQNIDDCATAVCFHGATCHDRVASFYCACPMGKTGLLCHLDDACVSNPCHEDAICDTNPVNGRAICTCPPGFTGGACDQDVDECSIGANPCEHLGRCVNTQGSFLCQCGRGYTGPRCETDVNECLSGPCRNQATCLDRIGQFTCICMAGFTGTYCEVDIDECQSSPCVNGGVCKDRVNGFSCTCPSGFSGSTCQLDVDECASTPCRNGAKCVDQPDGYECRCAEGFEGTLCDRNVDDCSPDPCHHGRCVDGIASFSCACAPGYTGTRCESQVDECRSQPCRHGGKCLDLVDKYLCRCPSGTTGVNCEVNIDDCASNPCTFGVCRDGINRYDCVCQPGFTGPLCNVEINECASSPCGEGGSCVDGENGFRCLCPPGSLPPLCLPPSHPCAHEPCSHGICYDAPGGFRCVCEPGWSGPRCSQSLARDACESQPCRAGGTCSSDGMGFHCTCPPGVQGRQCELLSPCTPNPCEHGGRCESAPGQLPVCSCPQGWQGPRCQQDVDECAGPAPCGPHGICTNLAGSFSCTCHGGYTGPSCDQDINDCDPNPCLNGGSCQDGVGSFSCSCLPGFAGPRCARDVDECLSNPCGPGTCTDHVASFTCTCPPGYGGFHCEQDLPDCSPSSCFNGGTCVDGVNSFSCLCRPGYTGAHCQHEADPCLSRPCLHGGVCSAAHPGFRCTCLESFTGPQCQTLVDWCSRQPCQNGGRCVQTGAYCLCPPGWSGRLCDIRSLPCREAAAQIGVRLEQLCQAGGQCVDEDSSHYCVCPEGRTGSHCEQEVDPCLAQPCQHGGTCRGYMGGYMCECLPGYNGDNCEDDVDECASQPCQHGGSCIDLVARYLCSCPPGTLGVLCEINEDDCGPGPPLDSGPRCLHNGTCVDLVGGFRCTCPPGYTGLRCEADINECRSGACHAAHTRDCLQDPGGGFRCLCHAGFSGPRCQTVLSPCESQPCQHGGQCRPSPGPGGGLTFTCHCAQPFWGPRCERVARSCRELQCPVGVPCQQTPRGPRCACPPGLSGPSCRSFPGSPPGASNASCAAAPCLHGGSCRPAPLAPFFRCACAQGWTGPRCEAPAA

[5] = target: Notch3-EGF/Fc fusion protein (human) (UniProt Q9UM47); test: ELISA, hybridoma supernatant on coated Notch3-EGF/Fc (0.1 ug/ml); control beside 255A-77
[6] = target: T1, Notch3-LD/Fc fusion protein; test: Western blot, denaturing conditions
Experimental: Western blot was performed to assess anti-Notch3 mAbs binding activity to Notch3 under denaturing condition. For this purpose, purified Notch3-EGF/Fc and Notch3-LD/Fc fusion proteins were combined with protein loading buffer (BioRad, Hercules, Calif.). Protein samples were also prepared from the transiently or stably transfected cells described in Example 1, which were harvested from culture dishes, washed once with phosphate buffered saline (PBS), resuspended in deionized water, and heated at 100° C. for 10 minutes after adding equal volume of 2× protein sample loading buffer (BioRad, Hercules, Calif.). All samples were separated by electrophoresis in a 4-15% gradient SDS-PAGE (BioRad, Hercules, Calif.). The proteins were transferred from gel to PVDF membrane (BioRad, Hercules, Calif.) and anti-Notch3 mAbs were applied to the Western blot membrane as the primary detection antibody. An HRP-conjugated secondary antibody was used for detection and the signal generated using a Supersignal Chemiluminescent Substrate (Pierce, Rockford, Ill.) as described above.

Notch3-LDTM/V5 = target: T2, Notch3-LDTM/V5 (human, UniProt Q9UM47 1378-1664, limits assumed); test: cell-based FMAT assay on cells expressing Notch3-LDTM
T2 construct: not shown: V5 tag at the C-terminus
T2 sequence: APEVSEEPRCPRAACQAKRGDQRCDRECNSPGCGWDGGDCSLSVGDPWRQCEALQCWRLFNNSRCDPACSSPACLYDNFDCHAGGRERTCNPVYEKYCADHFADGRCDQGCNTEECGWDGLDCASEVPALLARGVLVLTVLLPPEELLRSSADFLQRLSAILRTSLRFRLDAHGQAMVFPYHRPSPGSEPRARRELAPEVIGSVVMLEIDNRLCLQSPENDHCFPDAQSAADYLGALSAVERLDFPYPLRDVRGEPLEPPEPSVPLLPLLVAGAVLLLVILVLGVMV
Experimental: Cell-based antibody-binding was assessed using FMAT™ 8100 HTS System (Applied Biosystems, Foster City, Calif.) and protocol provided by the manufacturer with some modification. Cell lines expressing Notch3 were seeded in 96-well plates at a density of 30,000-50,000 cells per well. After 20-24 hours, anti-Notch3 mAbs and 1×PBS reaction buffer were added to the wells and incubated for one hour at 37° C. Cy-5-conjugated anti-mouse IgG antibody was added to the wells after removal of primary antibodies. The fluorescent intensity of bound antibody was measured by FMAT™ 8100 HTS System.

human Notch3 (full-length) (human), sequence (Q9UM47 40-2321 A2223V limits assumed): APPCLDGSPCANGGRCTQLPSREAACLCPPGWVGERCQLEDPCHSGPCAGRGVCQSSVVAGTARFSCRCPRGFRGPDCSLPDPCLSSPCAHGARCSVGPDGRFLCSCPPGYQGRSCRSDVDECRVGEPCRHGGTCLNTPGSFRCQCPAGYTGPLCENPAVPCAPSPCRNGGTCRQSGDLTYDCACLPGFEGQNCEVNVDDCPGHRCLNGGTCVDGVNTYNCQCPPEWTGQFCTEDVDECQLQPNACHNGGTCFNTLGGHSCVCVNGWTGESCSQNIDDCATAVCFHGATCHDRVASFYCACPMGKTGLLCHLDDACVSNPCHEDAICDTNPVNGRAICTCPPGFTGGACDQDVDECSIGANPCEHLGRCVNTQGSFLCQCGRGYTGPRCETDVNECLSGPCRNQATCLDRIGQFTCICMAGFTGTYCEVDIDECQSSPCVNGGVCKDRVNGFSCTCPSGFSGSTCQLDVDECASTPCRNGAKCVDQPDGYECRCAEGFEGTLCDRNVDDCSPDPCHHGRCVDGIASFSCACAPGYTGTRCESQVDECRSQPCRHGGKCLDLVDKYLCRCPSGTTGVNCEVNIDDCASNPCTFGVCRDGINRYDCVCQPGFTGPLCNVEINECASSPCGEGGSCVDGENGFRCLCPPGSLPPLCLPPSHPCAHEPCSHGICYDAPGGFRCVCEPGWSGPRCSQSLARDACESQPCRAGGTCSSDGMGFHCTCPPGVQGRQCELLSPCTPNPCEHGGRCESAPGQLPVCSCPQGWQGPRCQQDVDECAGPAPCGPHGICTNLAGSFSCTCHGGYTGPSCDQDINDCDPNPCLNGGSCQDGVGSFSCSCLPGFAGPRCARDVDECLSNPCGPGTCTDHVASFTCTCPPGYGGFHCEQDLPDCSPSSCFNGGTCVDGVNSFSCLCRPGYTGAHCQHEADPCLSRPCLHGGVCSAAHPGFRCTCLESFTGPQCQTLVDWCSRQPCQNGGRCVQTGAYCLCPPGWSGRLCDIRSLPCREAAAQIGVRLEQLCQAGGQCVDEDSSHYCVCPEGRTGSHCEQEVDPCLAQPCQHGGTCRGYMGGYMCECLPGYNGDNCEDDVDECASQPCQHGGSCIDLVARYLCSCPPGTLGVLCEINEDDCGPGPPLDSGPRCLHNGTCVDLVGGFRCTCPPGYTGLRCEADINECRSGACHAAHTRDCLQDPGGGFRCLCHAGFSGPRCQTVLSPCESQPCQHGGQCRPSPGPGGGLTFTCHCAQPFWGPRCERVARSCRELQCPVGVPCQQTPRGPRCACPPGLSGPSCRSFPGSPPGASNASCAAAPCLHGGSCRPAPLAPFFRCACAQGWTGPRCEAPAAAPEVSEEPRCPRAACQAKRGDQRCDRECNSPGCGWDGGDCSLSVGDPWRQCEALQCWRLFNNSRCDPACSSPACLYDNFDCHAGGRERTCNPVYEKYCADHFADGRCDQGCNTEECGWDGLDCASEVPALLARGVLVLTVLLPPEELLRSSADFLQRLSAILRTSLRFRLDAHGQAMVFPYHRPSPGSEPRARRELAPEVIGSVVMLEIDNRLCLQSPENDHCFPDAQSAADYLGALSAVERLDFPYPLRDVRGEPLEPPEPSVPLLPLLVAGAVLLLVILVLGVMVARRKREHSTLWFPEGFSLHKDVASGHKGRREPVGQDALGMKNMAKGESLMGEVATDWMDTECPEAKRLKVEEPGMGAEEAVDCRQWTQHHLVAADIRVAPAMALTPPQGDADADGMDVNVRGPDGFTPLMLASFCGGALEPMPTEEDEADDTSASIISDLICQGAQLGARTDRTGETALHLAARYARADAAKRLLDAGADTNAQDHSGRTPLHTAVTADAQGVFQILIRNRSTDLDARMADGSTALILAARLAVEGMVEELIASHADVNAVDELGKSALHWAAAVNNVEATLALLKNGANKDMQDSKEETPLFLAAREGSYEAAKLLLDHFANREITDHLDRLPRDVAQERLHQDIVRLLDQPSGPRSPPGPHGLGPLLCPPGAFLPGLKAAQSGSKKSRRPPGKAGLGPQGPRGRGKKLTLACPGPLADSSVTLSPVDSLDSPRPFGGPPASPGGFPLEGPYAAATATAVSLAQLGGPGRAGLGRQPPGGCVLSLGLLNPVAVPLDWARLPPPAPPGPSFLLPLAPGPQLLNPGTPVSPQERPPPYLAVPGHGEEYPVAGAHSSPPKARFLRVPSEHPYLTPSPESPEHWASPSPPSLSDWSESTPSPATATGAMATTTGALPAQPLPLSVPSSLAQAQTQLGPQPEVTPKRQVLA

mean fluorescence intensity [1]: 24.5 MFI | mean fluorescence intensity [2]: 24.2 MFI
Molecule: Control IgG1 (antibody)

ELISA OD at 450 nm (mean) [3]: 0.019 OD | ELISA OD at 450 nm (mean) [4]: 0.01 OD | ELISA OD at 450 nm (mean) [5]: 0.019 OD
Molecule: Control hybridoma supernatant (antibody)

binding result [6]: no binding | binding result (Notch3-LDTM/V5): no binding
B1: anti-Notch 3 monoclonal antibody mAb 255A-71 (antibody, V domains shown)
VH: DVQLQESGPGLVKPSQSLSLTCSVTGYSITSGYYWNWIRQFPGNKLEWMGFISYDGSNNYNPSLKNRISITRDTSKNQFFLKLNSVTTEDTATFYCATLYYDYDGNYFDYWGQGTTLTVSS
VL: CDIQMTQTTSSLSASLGDRVTISCRTSQDISNYLNWYQQKPDGTVKLLIYYTSRLHSGVPSRFSGSGSGTDYSLTISNLEQEDIATYFCQQGNALPLTFGPGTKLELKR
notes: Mouse hybridoma mAb raised against Notch3-EGF/Fc

binding result [6]: no binding | binding result (Notch3-LDTM/V5): no binding
B2: anti-Notch 3 monoclonal antibody mAb 255A-77 (antibody, V domains shown)
VH: QVQLQQSGDDLVKPGASVKLSCKASGYTFTSYWINWIKQRPGQGLEWIGHIGPGSGSTYYNEIFKGKATLTVDTSSSTAYIQLSSLSSEDSAVYFCVLTRYFYAMDYWGQGTSVTVSS
VL: DIVMTQSPSSLAVTAGEKVTMRCKSSQSLLWSVNQNNYLSWYQQKQGQPPKLLIYGASIRESWVPDRFTGSGSGTDFTLTISNVHVEDLAVYYCQHNHGSFLPLTFGAGTKLELKR
notes: as for B1
